Results reported in article PMC6662825, “The MTR4 helicase recruits nuclear adaptors of the human RNA exosome using distinct arch-interacting motifs” (Nature Communications, 2019).
Numbering of substitutions follows the chain as printed.

Tests used:
Details in all cases: both partners purified
GST-MTR4-∆N = target: T1, GST-MTR4-∆N (human, UniProt P42285 75-1042); assay: pull-down; GST-MTR4∆N (WT or mutants) as bait, 30 μM, with 60 μM Trx-NOP53^84–123 in 30 μl, glutathione sepharose; 50 mM Hepes pH 7.5, 150 mM NaCl, 5% glycerol, 0.05% NP40, 1 mM DTT, 4 °C; SDS-PAGE, Coomassie
T1 construct: Tag is cleavable with 3C protease; kept for the GST pull-downs; also called GST-tagged MTR4∆N; source: E. coli BL21 star (DE3), purified (Ni-NTA, heparin, SEC); not shown: 6xHis-GST, N-terminal, kept
T1 sequence (looked up): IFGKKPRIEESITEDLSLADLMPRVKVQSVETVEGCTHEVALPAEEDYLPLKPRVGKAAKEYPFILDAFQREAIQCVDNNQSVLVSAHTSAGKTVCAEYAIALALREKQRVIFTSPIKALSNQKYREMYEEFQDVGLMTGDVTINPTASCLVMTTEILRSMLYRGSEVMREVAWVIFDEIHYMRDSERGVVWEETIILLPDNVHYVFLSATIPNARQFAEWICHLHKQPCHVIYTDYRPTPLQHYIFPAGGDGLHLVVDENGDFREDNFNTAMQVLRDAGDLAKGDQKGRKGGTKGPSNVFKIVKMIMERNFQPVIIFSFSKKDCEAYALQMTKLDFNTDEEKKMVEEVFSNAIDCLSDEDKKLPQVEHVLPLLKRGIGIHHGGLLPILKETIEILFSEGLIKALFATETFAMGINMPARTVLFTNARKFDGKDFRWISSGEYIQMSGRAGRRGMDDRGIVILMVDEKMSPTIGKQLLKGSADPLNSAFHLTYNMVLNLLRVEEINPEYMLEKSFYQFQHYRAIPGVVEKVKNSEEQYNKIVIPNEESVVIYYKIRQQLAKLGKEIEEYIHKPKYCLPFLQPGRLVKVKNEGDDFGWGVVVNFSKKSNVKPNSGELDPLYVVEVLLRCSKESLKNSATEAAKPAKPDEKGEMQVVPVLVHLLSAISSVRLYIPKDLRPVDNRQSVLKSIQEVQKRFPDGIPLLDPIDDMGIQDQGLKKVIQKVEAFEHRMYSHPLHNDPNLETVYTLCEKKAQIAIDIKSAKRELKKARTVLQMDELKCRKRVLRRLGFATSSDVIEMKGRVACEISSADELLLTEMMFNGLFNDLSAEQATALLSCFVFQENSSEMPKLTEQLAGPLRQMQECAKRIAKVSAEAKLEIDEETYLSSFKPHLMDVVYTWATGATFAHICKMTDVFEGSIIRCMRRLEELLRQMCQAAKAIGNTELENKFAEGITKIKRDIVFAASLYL

GST-MTR4∆N F677E = target: T2, GST-MTR4∆N F677E (human, UniProt P42285 75-1042, F677E); assay: as above
T2 construct: source: E. coli BL21 star (DE3), purified (Ni-NTA, heparin, SEC); not shown: 6xHis-GST, N-terminal, kept
T2 sequence (looked up): T1 sequence (looked up) with F603E

GST-MTR4∆N R743E = target: T3, GST-MTR4∆N R743E (human, UniProt P42285 75-1042, R743E); assay: as above
T3 construct: also called R743E mutant; source: E. coli BL21 star (DE3), purified (Ni-NTA, heparin, SEC); not shown: 6xHis-GST, N-terminal, kept
T3 sequence (looked up): T1 sequence (looked up) with R669E

MTR4∆N2 (70–1042) = target: T4, MTR4∆N2 (70–1042) (human, UniProt P42285 70-1042); assay: crystal structure; MTR4∆N2 (70–1042) mixed with 2 molar excess of NVL (167–216), with ADP and MgCl2; 3.07 Å, space group P6(1); PDB 6RO1
T4 construct: human MTR4; Crystallised with ADP and MgCl2 in the buffer; source: E. coli, purified; GST fusion cleaved with TEV; not shown: GST, N-terminal, cleaved
T4 sequence (looked up): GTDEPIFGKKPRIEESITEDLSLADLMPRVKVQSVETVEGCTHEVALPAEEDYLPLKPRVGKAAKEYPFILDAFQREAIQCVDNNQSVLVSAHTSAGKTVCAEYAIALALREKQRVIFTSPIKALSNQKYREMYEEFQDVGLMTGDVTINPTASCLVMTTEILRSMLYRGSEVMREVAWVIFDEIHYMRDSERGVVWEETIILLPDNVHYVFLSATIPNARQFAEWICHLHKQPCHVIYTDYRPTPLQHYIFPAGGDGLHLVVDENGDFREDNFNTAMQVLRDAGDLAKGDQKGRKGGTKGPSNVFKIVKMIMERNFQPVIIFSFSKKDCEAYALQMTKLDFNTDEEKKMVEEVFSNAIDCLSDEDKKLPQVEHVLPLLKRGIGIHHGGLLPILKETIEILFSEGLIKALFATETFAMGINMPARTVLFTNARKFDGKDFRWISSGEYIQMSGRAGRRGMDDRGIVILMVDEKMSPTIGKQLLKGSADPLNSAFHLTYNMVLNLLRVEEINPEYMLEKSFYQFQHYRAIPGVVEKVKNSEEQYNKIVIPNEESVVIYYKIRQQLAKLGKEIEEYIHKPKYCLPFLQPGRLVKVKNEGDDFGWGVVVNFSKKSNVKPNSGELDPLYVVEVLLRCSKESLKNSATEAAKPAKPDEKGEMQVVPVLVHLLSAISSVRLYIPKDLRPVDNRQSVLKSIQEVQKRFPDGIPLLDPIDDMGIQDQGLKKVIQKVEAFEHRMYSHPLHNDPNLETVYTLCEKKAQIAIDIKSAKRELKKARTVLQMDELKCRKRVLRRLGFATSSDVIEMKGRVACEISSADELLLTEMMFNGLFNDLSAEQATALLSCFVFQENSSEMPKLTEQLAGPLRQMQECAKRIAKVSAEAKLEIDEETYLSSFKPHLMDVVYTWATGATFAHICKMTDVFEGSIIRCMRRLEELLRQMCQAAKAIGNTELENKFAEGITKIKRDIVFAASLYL

MTR4-KOW = target: T5, MTR4-KOW (human, UniProt P42285 645-787); assay: NMR titration; 1H-15N HSQC of 53 μM 15N-labelled MTR4-KOW with 0.25, 0.5, 1, 2 and 6 molar equivalents of unlabeled NVL^167–216; 298 K; phosphate buffered saline, 10% D2O
T5 construct: human MTR4 KOW domain, residues 645–787; Named without GST in MST, NMR and ITC; the methods say the His-GST tag was cleaved with 3C protease 'when appropriate', so it was probably removed; Isotope-labelled for NMR; also called unlabeled MTR4 KOW; 15N-labelled MTR4-KOW; source: E. coli BL21 star (DE3), purified (Ni-NTA, heparin, SEC); minimal medium with 15N/13C for NMR
T5 sequence (looked up): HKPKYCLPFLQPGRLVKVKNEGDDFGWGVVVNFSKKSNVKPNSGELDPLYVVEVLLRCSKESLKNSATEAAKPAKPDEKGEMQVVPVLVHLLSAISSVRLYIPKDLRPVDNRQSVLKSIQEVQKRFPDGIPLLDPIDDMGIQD

MTR4-∆N = target: T6, MTR4-∆N (human, UniProt P42285 75-1042); assay: ITC; 500 µM NVL injected into 40 µM MTR4-∆N; 25 °C; 50 mM Hepes/NaOH pH 7.5, 150 mM NaCl, 0.5 mM TCEP
T6 construct: Used in ITC, named without GST; the tag was probably cleaved ('when appropriate'); also called MTR4-∆N (the reactant); source: E. coli BL21 star (DE3), purified (Ni-NTA, heparin, SEC)
T6 sequence (looked up): T1 sequence (looked up)

Measured: binding result

B1: Trx-NOP53^84–123 (domain or fragment)
chain: not shown
notes: human NOP53 (also known as GLTSCR2), residues 84–123; also called human Nop53 orthologue; human Nop53; not shown: Trx, N-terminal, kept
binds: GST-MTR4-∆N | GST-MTR4∆N F677E | GST-MTR4∆N R743E

B2: NVL^167–216 (peptide, UniProt O15381 167-216, looked up)
chain: KDSEGGWFIDKTPSVKKDSFFLDLSCEKSNPKKPITEIQDSKDSSLLESD
notes: Named without Trx in ITC, NMR and crystallisation; the methods say tags were cleaved with 3C protease 'when appropriate', so the tag was probably removed; also called NVL peptide; source: E. coli BL21 star (DE3), purified (Ni-NTA, SEC)
binds: MTR4∆N2 (70–1042) | MTR4-KOW | MTR4-∆N
